According to article PMC3458930:

Columns and labels:
caspase-3 = caspase-3 (UniProt P42574); experiment: co-immunoprecipitation, Flag-tagged αB-crystallin; settings: reference: wild type; sites S45
caspase-7 = caspase-7 (UniProt P55210); experiment: co-immunoprecipitation, Flag-tagged αB-crystallin; settings: reference: wild type; sites S45

**Q.** For “αB-crystallin (from UniProt P02511) S45A”, which “binding against the reference” value (caspase-3) is on record?
**A.** The value was “weaker”.

**Q.** What about the “binding against the reference” value (caspase-7) of the same substance?
**A.** The value was “weaker”.
